Laboratory results as given in patent US20250122303A1 (HUMMINGBIRD BIOSCIENCE PTE, published 2025).
Numbering of substitutions follows the chain as printed. Blank lines part the entries; values can stand above or below the binder they belong to.

Legend:
[1] = biological target: T1, rat HER3 (rat, UniProt Q62799 20-641, limits assumed); assay: ELISA, plate coated with 0.1 ug/ml rat HER3, antibody titrated, absorbance 450 nm
T1 construct: also called rat homologue of HER3 (Sino Biological Inc.); R. norvegicus HER3
T1 sequence (Q62799 20-641 limits assumed): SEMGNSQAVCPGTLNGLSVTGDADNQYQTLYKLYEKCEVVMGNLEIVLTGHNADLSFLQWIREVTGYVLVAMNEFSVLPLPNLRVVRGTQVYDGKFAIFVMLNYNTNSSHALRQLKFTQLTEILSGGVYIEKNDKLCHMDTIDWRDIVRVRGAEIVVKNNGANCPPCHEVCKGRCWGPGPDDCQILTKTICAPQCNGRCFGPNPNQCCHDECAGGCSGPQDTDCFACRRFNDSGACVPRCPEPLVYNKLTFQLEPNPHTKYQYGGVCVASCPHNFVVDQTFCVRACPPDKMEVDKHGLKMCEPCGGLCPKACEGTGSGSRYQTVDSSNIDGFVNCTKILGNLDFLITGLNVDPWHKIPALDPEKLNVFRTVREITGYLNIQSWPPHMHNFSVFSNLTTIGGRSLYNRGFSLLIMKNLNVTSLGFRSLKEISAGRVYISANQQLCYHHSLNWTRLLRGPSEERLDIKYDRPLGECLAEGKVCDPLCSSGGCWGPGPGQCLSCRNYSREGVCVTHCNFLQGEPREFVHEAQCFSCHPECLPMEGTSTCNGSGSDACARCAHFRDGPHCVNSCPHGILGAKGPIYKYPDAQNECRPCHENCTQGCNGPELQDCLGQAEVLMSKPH
Experimental: (§1) ELISAs were used to determine the binding specificity of the antibodies. The antibodies were analysed for binding to human HER3 polypeptide, as well as respective mouse, rat and monkey homologues of HER3 (Sino Biological Inc., China). The antibodies were also analysed for their ability to bind to human EGFR and human HER2 (Sino Biological Inc., China).
(§2) ELISAs were carried out according to standard protocols. Briefly, 96-well plates (Nunc, Denmark) were coated with 0.1 μg/ml of target polypeptide in phosphate-buffered saline (PBS) for 16 h at 4° C. After blocking for 1 h with 1% BSA in Tris buffer saline (TBS) at room temperature, the anti-HER3 antibody was serially diluted with the highest concentration being 10 μg/ml, and added to the plate. Post 1 h incubation at room temperature, plates were washed three times with TBS containing 0.05% Tween 20 (TBS-T) and were then incubated with a HRP-conjugated […] antibody (Life Technologies, Inc., USA) for 1 h at room temperature. After washing, plates were developed with colorimetric detection substrate 3,3′,5,5′-tetramethylbenzidine (Turbo-TMB; Pierce, USA) for 10 min. The reaction was stopped with 2M H₂SO₄, and OD was measured at 450 nm.

[2] = biological target: T2, mouse HER3 (mouse, UniProt Q61526 20-641); assay: ELISA, plate coated with 0.1 ug/ml mouse HER3, antibody titrated, absorbance 450 nm
T2 construct: also called mouse homologue of HER3 (Sino Biological Inc.); M. musculus HER3
T2 sequence (Q61526 20-641 limits assumed): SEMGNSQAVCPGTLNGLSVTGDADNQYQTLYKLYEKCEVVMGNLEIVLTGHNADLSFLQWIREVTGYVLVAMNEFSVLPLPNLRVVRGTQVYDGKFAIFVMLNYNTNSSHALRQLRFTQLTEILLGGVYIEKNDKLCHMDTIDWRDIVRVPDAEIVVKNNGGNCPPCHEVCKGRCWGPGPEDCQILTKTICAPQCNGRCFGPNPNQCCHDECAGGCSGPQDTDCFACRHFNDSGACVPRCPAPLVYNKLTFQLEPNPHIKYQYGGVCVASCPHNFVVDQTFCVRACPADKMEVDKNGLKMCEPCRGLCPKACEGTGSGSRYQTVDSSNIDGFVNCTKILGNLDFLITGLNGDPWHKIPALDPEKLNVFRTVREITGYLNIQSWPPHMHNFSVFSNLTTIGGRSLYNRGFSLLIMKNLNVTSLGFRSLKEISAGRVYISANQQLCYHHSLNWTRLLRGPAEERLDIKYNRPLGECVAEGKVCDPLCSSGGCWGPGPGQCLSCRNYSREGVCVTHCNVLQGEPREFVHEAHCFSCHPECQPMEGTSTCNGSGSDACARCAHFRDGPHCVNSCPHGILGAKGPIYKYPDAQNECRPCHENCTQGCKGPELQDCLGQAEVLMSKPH
Experimental: as §1, §2

[3] = biological target: T3, human EGFR (human, UniProt P00533 25-645); assay: ELISA, plate coated with 0.1 ug/ml human EGFR, antibody titrated, absorbance 450 nm
T3 construct: also called human HER1 (EGFR) (Sino Biological Inc.)
Experimental: as §1, §2

[4] = biological target: T4, human HER2 (human, UniProt P04626 23-652); assay: ELISA, plate coated with 0.1 ug/ml human HER2, antibody titrated, absorbance 450 nm
T4 construct: also called human HER2 (Sino Biological Inc.)
Experimental: as §1, §2

[5] = biological target: T5, His-tagged human HER3 (human, UniProt P21860 20-643); assay: BLI (Octet QK384), antibody on anti-human IgG capture tips, His-tagged human HER3 in solution, global one-site fit
T5 construct: Antigen of the BLI experiments and of the HER2-Fc dimerisation ELISA; also called HER3 His; not shown: His tag
Experimental: (§3) The anti-HER3 antibody clones in IgG1 format were analysed for binding affinity to human HER3. Bio-Layer Interferometry (BLI) experiments were performed using the Octet QK384 system (ForteBio). anti-Human IgG Capture (AHC) Octet sensor tips (Pall ForteBio, USA) were used to anti-HER3 antibodies (25 nM). All measurements were performed at 25° C. with agitation at 1000 rpm. […] Sensograms were referenced for buffer effects and then fitted using the Octet QK384 user software (Pall ForteBio, USA). Kinetic responses were subjected to a global fitting using a one site binding model to obtain values for association (Kₒₙ), dissociation (Koff) rate constants and the equilibrium dissociation constant (KD). Only curves that could be reliably fitted with the software (R²>0.90) were included in the analysis.

[6] = biological target: T6, human HER3 expressed on cells (HEK293 HER3 O/E cells) (human, UniProt P21860 20-1342); assay: flow cytometry, HEK293 cells overexpressing human HER3, 20 ug/ml antibody, FITC anti-Fc secondary; same antibody on WT HEK293: 17.31
T6 construct: Also used here for HER3 on U2OS cells of the PathHunter kit and on cancer cell lines; also called HEK293 cells transfected with vector encoding human HER3; human HER3-expressing cells
Experimental: (§4) The cells were washed thrice with FACS buffer (PBS with 5 mM EDTA and 0.5% BSA) and resuspended in FITC-conjugated anti-FC antibody (Invitrogen, USA) for 40 min at 2-8° C. Cells were washed again and resuspended in 200 μL of FACS flow buffer (PBS with 5 mM EDTA) for flow cytometric analysis using MACSQuant 10 (Miltenyi Biotec, Germany). After acquisition, all raw data were analyzed using Flowlogic software. Cells were gated using forward and side scatter profile percentage of positive cells was determined for native and overexpressing cell populations.

[7] = biological target: T6, human HER3 expressed on cells (HEK293 …); assay: as above; remark: listed apart in the source
Experimental: as §4

[8] = biological target: T5, His-tagged human HER3; assay: BLI (Octet QK384), antibody on anti-human IgG capture tips, His-tagged human HER3 35-278 nM, global 1:1 fit
Experimental: as §3

[9] = biological target: T5, His-tagged human HER3; assay: BLI (Octet QK384), antibody on anti-human IgG capture tips, His-tagged human HER3 in solution, global 1:1 fit, R^2 = 0.9946, kon Error 5.99E+03; Response 0.119 / 0.2877 / 0.4777 / 0.6639 at 35 / 69 / 139 / 278 nM
Experimental: as §3

[10] = biological target: T5, His-tagged human HER3; assay: BLI (Octet QK384), antibody on anti-human IgG capture tips, His-tagged human HER3 35-278 nM, global 1:1 fit; kdis Error 1.16E-04
Experimental: as §3

[11] = biological target: T5, His-tagged human HER3; assay: BLI (Octet QK384), antibody on anti-human IgG capture tips, His-tagged human HER3 in solution, global 1:1 fit, R^2 = 0.9957, kon Error 3.54E+03; Response 0.0338 / 0.0911 / 0.1967 / 0.3885 at 35 / 69 / 139 / 278 nM
Experimental: as §3

[12] = biological target: T5, His-tagged human HER3; assay: BLI (Octet QK384), antibody on anti-human IgG capture tips, His-tagged human HER3 35-278 nM, global 1:1 fit; kdis Error 1.00E-04
Experimental: as §3

[13] = biological target: T5, His-tagged human HER3; assay: BLI (Octet QK384), antibody on anti-human IgG capture tips, His-tagged human HER3 in solution, global 1:1 fit, R^2 = 0.9954, kon Error 4.57E+03; Response 0.0786 / 0.1929 / 0.3283 / 0.5147 at 35 / 69 / 139 / 278 nM
Experimental: as §3

[14] = biological target: T5, His-tagged human HER3; assay: BLI (Octet QK384), antibody on anti-human IgG capture tips, His-tagged human HER3 in solution, global 1:1 fit, R^2 = 0.9951, kon Error 5.36E+03; Response 0.0037 / 0.1082 / 0.2868 / 0.3903 at 35 / 69 / 139 / 278 nM
Experimental: as §3

[15] = biological target: T5, His-tagged human HER3; assay: BLI (Octet QK384), antibody on anti-human IgG capture tips, His-tagged human HER3 in solution, global 1:1 fit, R^2 = 0.9915, kon Error 7.36E+03; Response 0.114 / 0.2569 / 0.4134 / 0.5768 at 35 / 69 / 139 / 278 nM
Experimental: as §3

[16] = biological target: T5, His-tagged human HER3; assay: BLI (Octet QK384), antibody captured on AHC sensors, His-tagged human HER3 in solution, without NRG1
[17] = biological target: T6, human HER3 expressed on cells (HEK293 …); assay: flow cytometry on HEK293T HER3 O/E cells, 10 ug antibody as printed, FITC-conjugated anti-Fc secondary
Experimental: The cells were washed with buffer (PBS with 2 mM EDTA and 0.5% BSA) and resuspended in FITC-conjugated anti-FC antibody (Invitrogen, USA) at 10 μg/ml for 20 min at 4° C. Cells were washed again and resuspended in 200 μL of FACS flow buffer (PBS with 5 mM EDTA) for flow cytometric analysis using MACSQuant 10 (Miltenyi Biotec, Germany). Unstained WT and transfected HEK293 cells were included in the analysis as negative controls. After acquisition, all raw data were analyzed using Flowlogic software. Cells were gated using forward and side scatter profile percentage of positive cells was determined for native and overexpressing cell populations.

[18] = biological target: T6, human HER3 expressed on cells (HEK293 …); assay: flow cytometry, HEK293 cells overexpressing human HER3, 20 ug/ml antibody, FITC anti-Fc secondary; same antibody on WT HEK293: 1.91
[19] = biological target: T6, human HER3 expressed on cells (HEK293 …); assay: flow cytometry, HEK293 cells overexpressing human HER3, 20 ug/ml antibody, FITC anti-Fc secondary; same antibody on WT HEK293: 8.15

B2: anti-HER3 clone 10D1_c93 IgG1 (antibody, V domains shown)
VH: DVQLQEWGAGLLKPSETLSLTCAVTGYSITSGYSWHWIRQFPGNGLEWIGSIHYSGGTNYNPSLKSRITISRDTSKNQFSLRLSSVTAADTAVYFCARMTTAPRYPFDYWGQGTLVTVSS
VL: DIVMTQSPSSLSASVGDRVTITCKASQIVGSNVAWYQQKPGKSPKPLIYSASYLYSDVPSRFSGSGSGTDFTMTISSLQPEDVATYYCQQYSSHPLTFGPGTKVEIKR
notes: Humanised 10D1 variant, IgG1/kappa
Kd [5]: < 1 pM
koff [8]: < 1e-07 s⁻¹
kon [9]: 188000 M⁻¹ s⁻¹

B3: anti-HER3 clone 10D1_c85o2 IgG1 (antibody, V domains shown)
VH: B2 VH with N44K, H53R, R82K, S84G, M99G
VL: B2 VL with S52R, L54Q, D57G, S60F, M73L
notes: Humanised 10D1 variant, IgG1/kappa; also called 10D1_c8502
Kd [5]: 17300 pM
koff [10]: 0.00168 s⁻¹
kon [11]: 97400 M⁻¹ s⁻¹

B6: anti-HER3 clone 10D1_c87 IgG1 (antibody, V domains shown)
VH: B2 VH
VL: B2 VL with K39M, K45E
notes: as for B2
Kd [5]: < 1 pM
koff [8]: < 1e-07 s⁻¹
kon [15]: 188000 M⁻¹ s⁻¹

Continued, values first:

binding result [1]: binds
binding result [2]: binds
binding result [3]: binds
binding result [4]: binds
Kd [5]: 80900 pM
% Parent (HE3 positive) [6]: 43.2%
% Parent (HE3 positive) [7]: 43.2%
B1: anti-HER3 clone 4-35-B2 IgG1 (antibody, V domains shown)
VH: EIQLQQSGPELVKPGASVKVSCKASGYSFTDYNMYWVKQSHGKSLEWIGHINPYNGGTTYNQKFKGRATLTVDKSSSTAFMHLNSLTSEDSAVYFCVSLRWGAMDYWGQGTSVTVSS
VL: QIVLTQSPALMSASPGEKVTMTCSASSSVSYMYWYQQKPRSSPKPWIYLTSNLASGVPARFSGSGSGTSYSLTISSMEAEDAATYYCQQWNSNPYTFGGGTKLEIKR
notes: Human-mouse chimeric IgG1/kappa

Kd [5]: 410 pM
koff [12]: 6.01e-05 s⁻¹
kon [13]: 147000 M⁻¹ s⁻¹
B4: anti-HER3 clone 10D1_11B IgG1 (antibody, V domains shown)
VH: B2 VH with T25Y, F41P, N44K, I68V, R82K, F95Y
VL: B2 VL with L54G, M73L, Q79R
notes: Humanised 10D1 variant, IgG1/kappa; also called v11b78L; C78 v11b

Kd [5]: < 1 pM
koff [8]: < 1e-07 s⁻¹
kon [14]: 148000 M⁻¹ s⁻¹
B5: anti-HER3 clone 10D1_c76 IgG1 (antibody, V domains shown)
VH: B2 VH with R82K
VL: B2 VL with V15G, S31Y, G64A, M73L, T85E, Y87F
notes: as for B2

Kd [16]: < 1 pM
koff [16]: < 1e-07 s⁻¹
kon [16]: 79800 M⁻¹ s⁻¹
% Parent (HER3 positive) [17]: 74.4%
% Parent (HER3 positive) [18]: 99.5%
% Parent (HE3 positive) [19]: 98.7%
B7: LJM716 (antibody, V domains shown)
VH: EVQLLESGGGLVQPGGSLRLSCAASGFTFSSYAMSWVRQAPGKGLEWVSAINSQGKSTYYADSVKGRFTISRDNSKNTLYLQMNSLRAEDTAVYYCARWGDEGFDIWGQGTLVTVSS
VL: DIQMTQSPSSLSASVGDRVTITCRASQGISNWLAWYQQKPGKAPKLLIYGASSLQSGVPSRFSGSGSGTDFTLTISSLQPEDFATYYCQQYSSFPTTFGQGTKVEIK
